According to US20240398896A1, “INFLAMMASOME INHIBITION” (National University of Singapore, priority 2021, published 2024):
Changes are numbered by the printed parent chain.

T1: NLRP3 inflammasome (Mus musculus, UniProt Q9EPB4)
T1 sequence (Q9EPB4 1-193): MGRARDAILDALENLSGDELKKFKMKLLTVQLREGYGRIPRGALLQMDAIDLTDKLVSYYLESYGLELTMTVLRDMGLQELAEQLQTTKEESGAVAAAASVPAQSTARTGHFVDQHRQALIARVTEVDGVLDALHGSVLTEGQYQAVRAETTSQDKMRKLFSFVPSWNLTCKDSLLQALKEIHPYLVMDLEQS

B1: human ASC2: wildtype human ASC2, 89 amino acids, SEQ ID NO:7 (protein)
chain: MGTKREAILKVLENLTPEELKKFKMKLGTVPLREGFERIPRGALGQLDIVDLTDKLVASYYEDYAAELVVAVLRDMRMLEEAARLQRAA
B2: hupa4 ASC2: human ASC2 with 4 key sites substituted simultaneously with the ones in bat ASC2, SEQ ID NO:6 (protein)
chain: B1 chain with K10E, E37R, Y61C, R77G

Key:
[1] = rheumatoid arthritis; cited from earlier work
[2] = system: SARS-COV-2 immune complex-induced inflammasome activation; experiment: SARS-COV-2 immune complex-induced inflammasome activation in human monocytes; type: cell-based; details: 50 μM MCC950, 18 h
NLRP3 inflammasome [3] = target: T2, NLRP3 inflammasome (Homo sapiens, UniProt Q9ULZ3); experiment: ASC speck and filament formation in HEK293T cells reconstituted with human NLRP3-mCitrine and human ASC-mPlum (ImageStream, confocal); type: cell-based; set-up: expressed in transfected cells; host or cells: HEK293T; details: HEK293T; for ASC2 filament formation / distribution: ImageStream and confocal
T2 sequence (Q9ULZ3 whole entry): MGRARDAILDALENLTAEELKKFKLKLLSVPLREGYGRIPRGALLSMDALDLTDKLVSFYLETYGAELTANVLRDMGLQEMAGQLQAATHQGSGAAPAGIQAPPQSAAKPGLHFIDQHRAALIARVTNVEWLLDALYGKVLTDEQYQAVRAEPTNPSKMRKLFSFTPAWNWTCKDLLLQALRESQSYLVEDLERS
Description: (§1) Inflammasome activation assays.
ImageStream imaging flow cytometry. […] Nuclei were stained with DAPI.
Confocal imaging. […] At 48 h post-transfection, cells were fixed with 10% formalin for 15 min at room temperature. DAPI (1:2000 dilution) was used for nuclear staining. All samples were then mounted and examined using the Leica TCS SP8 confocal microscope.

NLRP3 inflammasome [4] = target: T2, NLRP3 inflammasome; experiment: Inflammasome activation in LPS-primed THP-1 macrophages stably expressing ASC2, stimulated with nigericin; type: cell-based; set-up: endogenous in cells; host or cells: THP-1 macrophages (PMA-differentiated, LPS-primed); details: THP-1 macrophages stably expressing equal ASC2-mCitrine, LPS 3 h, nigericin 2 h; FIG. 11L, 11M
Text: (§2) Generation of THP-1 and IMACs stable cells. […] Single cell clones were generated for THP-1 cells stably expressing ASC2-LSSmOrange.
as §1
ImageStream imaging flow cytometry.

human ASC = target: T3, human ASC (Homo sapiens, UniProt Q9ULZ3); experiment: Co-immunoprecipitation of ASC2-His with human ASC-Flag from HEK293T cells; type: binding; details: 0.25 μg bat or hupa4 ASC2 vs 3 μg human ASC2 transfected, FIG. 26A
T3 construct: expressed in transfected cells; host or cells: HEK293T
T3 sequence (Q9ULZ3 whole entry): as above
Description: (§3) Co-immunoprecipitation. HEK293T cells were transfected in 6-well plate with plasmids encoding His-tagged empty vector (His alone), bat ASC2, human ASC2, and Hupa4 ASC2 along with Flag-tagged human or bat ASC. 3 μg human ASC2, in contrast to 0.25 μg control, bat or hupa4 ASC2, were transfected to normalize the expression. At 48 h post-transfection, cells were lysed in IP lysis buffer (Pierce) according to manufacturer's protocol and centrifuged at 500 g for 10 minutes at 4° C. The supernatants were subjected to immunoprecipitation by incubation for 16 hours at 4° C. with anti-Flag (Sigma) incubated magnetic beads, followed by washing three times with TBS containing 0.05% Tween 20 and once with purified water. Bound proteins were separated by 15% SDS-PAGE, followed by immunoblotting analysis with the indicated antibodies.

bat ASC = experiment: Co-immunoprecipitation of ASC2-His with bat ASC-Flag from HEK293T cells; type: binding; details: 0.25 μg bat or hupa4 ASC2 vs 3 μg human ASC2 transfected, FIG. 26B
Description: as §3

NLRP3 inflammasome [5] = target: T1, NLRP3 inflammasome; experiment: Inflammasome activation in LPS-primed mouse immortalized macrophages (iMACs) stably expressing ASC2, stimulated with nigericin; type: cell-based; set-up: endogenous in cells; host or cells: BMDMs of C57BL/6 wild-type and bat ASC2/rtTA mice; details: iMACs stably expressing equal ASC2-LSSmOrange, LPS 3 h, FIG. 11J, 11K
Text: as §2, §1

Molecule	Reason for discontinuation after phase II clinical trials [1]	Cell death (LDH release) ([2]; 100 ng/ml Pam3CSK4, immune complexes, FIG. 10M)	IL-1β secretion ([2]; Pam3CSK4 priming, immune complexes, FIG. 10I)	ASC2 filament formation / distribution (NLRP3 inflammasome [3])	Co-localization with human ASC (NLRP3 inflammasome [3]; imaging, FIG. 3A)	Inflammasome inhibition (LDH release and IL-1β secretion) (NLRP3 inflammasome [4])	Interaction with human ASC (co-IP) (human ASC)	Interaction with bat ASC (co-IP) (bat ASC)	Inflammasome inhibition (LDH release and IL-1β secretion) (NLRP3 inflammasome [5])	ASC speck formation (human NLRP3 inflammasome activation) (NLRP3 inflammasome [3]; human NLRP3-mCitrine, human ASC-mPlum, 50 ng ASC2-LSSmOrange, 48 h post-transfection)
CC(C)(O)c1coc(S(=O)(=O)NC(=O)Nc2c3c(cc4c2CCC4)CCC3)c1 [MCC950]	liver toxicity	abolished	abolished	–	–	–	–	–	–	–
B1	–	–	–	diffusely distributed	not between human ASC2 and human ASC	–	–	–	–	–
B2	–	–	–	form filaments	–	gain-of-function	interact strongly with human ASC	interact with bat ASC more strongly than human ASC2	gain-of-function	gained the ability to inhibit NLRP3 inflammasome
